15 sequences from a protein production outcome set (Wang et al. 2014) can be followed below.

A short description of the series: label from the status in PepcDB records.
For the sequence “MNDGDGTPAAAARERRFGPLGTALVIIPTYNEAENIKAIVTRVREAVPEAHVLVADDNSPDGTGKLADELAAADDHVQVMHRKGKEGLGAAYLAGFRWGLEHGYGVLIEMDADGSHQPEELPRLLTALKGADLVLGSRWVPGGRVVNWPKSREIISRGGSMYSRIALDLPLRDITGGYRAFRRETLEGLGLEEVASQGYCFQVDLARRAIKAGYHVVEVPITFVERELGDSKMSRDILVEALWRVTTWGVGERVGKVLGRDRRSGTAADGQTASSGTDGRTASSDRSTDSLDESAKASDAKA”, the protein production result is reported as “failed”.

With “MNDIQQALQEALTHHQAGRLGEAKTLYDAILHAQPGQPDAMHFLGLLACQLKQYDAGLALMERSLAERPDASYFNNLGNMLRECGRLDDAIAHYRRAVALRPDYPEAHNNLGNALRDARDPAEAMRSCSRAIELRPGYAEAYNNLGNVLQDLGELDAAAASYGKAIAFHPAYAEAHSNLGNVLRAQERHADAIVHYRRAIELNPALRVAHRGLAIALRATDDFDGALEHARAGLEPDDAEGHCMLGRSLRSMNDFDGAARLFERACEIDPGYAPAWCRLGELRCQQGEYEESLRLCRHAIELDPELADAYNFLGLAYHNLDRMAASELSHRHAIDLNPDDADAHHNLAAALFRLDKLDEAMSEYRIAQELGVDPVKIQLTLGDILWAKRDFSGAVAAFREAVEHDPHRAYARLLFNMSSSPAFAPEEWVVDAQRYGDYLARDARLLSHDREQRARQARGRPLRVGFVSGDLRQHPVGIFLESVLAHLDRTRIEPHAYVTFVVEDDVTARLKTGFASWKKLTCLNRDQAARMIHDDGIDVLVDLAGHTNWSGLPVFAHRPAPVQASWLGFFATTGCRAIDYFIGDPHTLPADEAHHFVEQPWHLPDSYLCFTPPAYDVAVGPLPMATNGGVTFGCFGKLTKISDDVIALWSRLLHALPDARLMLKAHELGASDLNRATLERFARHGIGAHQLILEGGSPRAEYFNAYNRIDIALSPFPYPGGTTTAEALWMGVPVIGMKGGRFVTHICESLLHAAGMGDWIAADEDAYLAKAIAFAGDRDALAALRATLRERTLASPLCDAARFARNLEDAFHGMWARYVAGDTDGART”, the protein production result is on record as “failed”.

Regarding “MNDISVSADRHAIERGSFNGNAKEYFGIWIVNILLTIMTLGIYSAWAKVRRKRYFNGNTLLAGRAFGYHATGGQIFKGRLIAFAFIVFSQLVGLIHPFLVFAPTILLLIFLPWVITRSIRFNARVTSYRNVRFDFVGTAWGAFVSILLGSFVALLSIGILAPLASRWANRYIVSNLHYGDRRFSTDPKIGALYRAWIIPALLVVVGGVLAVFLLIFLAMVLVQAAGIGSRELATAPENYEIVTLFGLGQILINLLVAMLIYGFASTVYKAGVRNVVVSSTLLDGKHELHSDLHRGRYLWIVFSNLIVTIFTFGLMRPWAAVREAQYAVERMGISFKGDMGEVLSSMEATGAAVSAEYMDMEGFEFGF”, the protein production entry was “not failed”.

With “MNDQVLRTQTDRRQLQQIIAGLTEGVILIEPDQRILWANEAALAMHGVDSLEGLGADTGEYRERFRLRYRNNHPLQEGQYPAERLVAGECFSDVVVEVFPAADEDTRWVHRVRGLVLTTPEDKPDCLVLILHDAT”, the protein production result is given as “not failed”.

For the sequence “MNDRPNNYILTRESGFKVITELTKGQNCNGAETHPINGELYFNSWNAGQVFRYDFTTQETTPLFTIQDSGWEFHIQFHPSGNYAYIVVVNQHYILRSDYDWKTKRLTTPYIVCGQQGAKDWVDGVGKKARMHAPRQGTFVKNPAYKGSSDEYDFYFCDRENHCIRILTPQGRVTTFAGRGSNGTSGYNDGDLRQEARFNHPEGIVYDEERECFFIGDRENRRIRKIGLEHHHHHH”, the protein production entry is recorded as “not failed”.

As for “MNDTYQPINCDDYDNLELACQHHLMLTLELKDGEKLQAKASDLVSRKNVEYLVVEAAGETRELRLDKITSFSHPEIGTVVVSES”, the protein production entry was “not failed”.

In the case of “MNEKVYYFIKSYDDSLPMPPAESFGQILNETYLHPFDWSARTTRKSYWWSVLINFILSILCIVLGFYAFNKNINPGIRVIDAVVAIVVYLWVFLAGLGQMVRRLHDVGYSGYWYWSTFTGYGTMFLFYLALQPSAQRKVKWGKYLFSDQDYPEGKKEKVPVPTIGQILKEHFFDCFNWDARSTRTSFWVGTAINQVVMVIGVLACYLIAFLLFLPFRVTGLNSDDSKVIAVFFIIFLIFFAAVTIWAFLAQLGHTVRRLHDAGFNGGWWWLSVIPYVGQLLLAFLLFHPTVKNEVKWNKYLFDPEDRIR”, the protein production entry was “failed”.

As to “MNELLLITFSPLVAGVLAWLVRIRGVRESLGILGAIVPLAFLIKLYPSLDHPIRATISLGGFELGFSMSHLNWVFSMIAAVVGLSAVFGMASTAKDSYEWLFSLMSLTGALGIFMAQDLVTFFIFWEVMTFSSFMMVLKFNRAASLKYLILSIIGAYSMLVAIGIIYAKTGTFTFADISAFFRKEAMLAMLGGKSTFSRFDMALIYLLFLMAFGVKAGMFPLHVWAPDAYSETDQSYTAIFSGVLSKTGVYGFILLYVLMYGKLLIDLGQFKGTPLFGYIIAFLGGLTIIIGGVLAALQEDIRKLFAYSSISQVGYILVGLGIGTSLGIEAAIYHAISHALFKGLFFLVVATIIYRTGKTEFKDFGGLAEKMPFTFAMAFIAILSLAGIPPLVGFASKWLIFEAVISQKLPILGGMLFFGSAIGFVYLIRFTYAVWFGQRPSDIEDTKDAPLPLAIGMGILGTLNVVFGVAPGLVAKELNAIFGNPVIGGNIWELDLGFGRYNALLVAIWLVIGVLIAAILYFLGASTRKVPVTDTYQSGNPVTMEYNLTIRRNFFLPLKETMAFWLRISFDKLYKDTWKAIEDFAETARNYIYNGNVQAYAWYLAIILLILAAMGV”, the protein production result is recorded as “failed”.

For “MNEPLHLYVHIPFCLKKCRYCSFVSRSDAPLAIDDYASLVAREMEMRVAAANPLPLSPATTLYLGGGTPSLLSPAALERIIDAAARSYGLGPGAEITLEANPGTVTFQRLADFRSAGVNRLSLGVQSFDDGMLVLLGRLHTARQAREAVAATRRAGFDNIGIDLIHSLPGQTPDQWREQLACAVALNPDHVSAYGLTVEEGTPFAAMEERGELVLPDEEQSALMFEATTDVLVSAGFEHYEIANFARPHRRSRHNQVYWLRRNYLGFGAGAHSFLRAPAFGVRWKNTDDLELYRDTLAAAELPGEERTVLSRADAMAEFFFLGLRLLDGVREEDFVREFGDTMENVYGREMERLCSAGLLMREGGRLKLSRRGVILANRVFASFL”, the protein production result was “failed”.

On to “MNEQIDPFYEAKQEVDISVNKLQSLYNNWNNIPDKSSISAREKYNLIKEEIKYLNEDLNDLDNSVNIVKKNSYKFNISSQEIEERTQSLRIIRNLLNEITNNINNNVLSYNNNTNNDYNSVILKRQDNDLEELAESAERLHHAAITINTELKDQQKLLDELENEMDISSNEYKMDIYSIYIFVYFEFS”, for which the protein production result was “failed”.

For “MNESAGGRTPVPPAAWVFGLSTLIPFFIASGLFCYGPVAIRKSALLGLLAYSAAMVSYFGGVRTGLEIENPSPRWSVLGISLLFPLAGFGLLLGGLKFEAAWQLSGFLLVFLLQWVWDVTDHEGPSWRPRMRTLMTAGAAISLAFALEQALHM”, the protein production entry is recorded as “failed”.

With “MNEYFFPKLTAVEALAPYRLRTTWSTGEVLEVDVGDILRKIPDLAPILDPEAFARVHIAEWEGSVEWFDTEFGRDNVYAWAKEQAGEVSHEMFGDWMHRNNLSLTTAAEALGISRRMVSYYRTAHKIIPRTIWLACLGWEATRPETKTLPRTLPAAYAKGVSASLS”, the protein production result is “not failed”.

“MNEYQIKFKEDCYYAENNAGKVIGELLYSKIKQGKVISINQVRVDPLFRNRGIAGKLLKKAVDDAVKNGQLIKAVCSFSKKAFLQNKNYQKYEYKEN”: the protein production result is listed as “failed”.

As for “MNFDSYIFDFDGTLIDTTTCHVKATQSAFKRLNLDEPTEQAILHTYHLNLYNNFKALASHELSFYQIEKLIDEYNHCFSNDEIHQSKEYTGISEVLKFLHNQKKKIFVVSNKETLTTQKYLDYLGLSRFITDSLGVCIKNEDKLLCETIQNLIQKHHLMIGKTVYIGDTAQDIKSANQAHVQTCAVTWGAQSAHELLHEDPHYVVNDPEEFLTIL”, the protein production result is “failed”.

Consider “MNFEGIIIAAISFFIIGIFHPIVIKLEYYLTKNIWPLFLILGIIFIIISLFQKQTVAAAIMGIIGATCIWSIKEIFEQEKRVQKGWFPKNPRKK”, for which the protein production result is recorded as “failed”.
